Test results reported in publication PMC5156543 (Molecular Biology of the Cell, 2016).

Target: T1, Vps35-3xHA (S. cerevisiae, UniProt P34110 1-944)
T1 sequence: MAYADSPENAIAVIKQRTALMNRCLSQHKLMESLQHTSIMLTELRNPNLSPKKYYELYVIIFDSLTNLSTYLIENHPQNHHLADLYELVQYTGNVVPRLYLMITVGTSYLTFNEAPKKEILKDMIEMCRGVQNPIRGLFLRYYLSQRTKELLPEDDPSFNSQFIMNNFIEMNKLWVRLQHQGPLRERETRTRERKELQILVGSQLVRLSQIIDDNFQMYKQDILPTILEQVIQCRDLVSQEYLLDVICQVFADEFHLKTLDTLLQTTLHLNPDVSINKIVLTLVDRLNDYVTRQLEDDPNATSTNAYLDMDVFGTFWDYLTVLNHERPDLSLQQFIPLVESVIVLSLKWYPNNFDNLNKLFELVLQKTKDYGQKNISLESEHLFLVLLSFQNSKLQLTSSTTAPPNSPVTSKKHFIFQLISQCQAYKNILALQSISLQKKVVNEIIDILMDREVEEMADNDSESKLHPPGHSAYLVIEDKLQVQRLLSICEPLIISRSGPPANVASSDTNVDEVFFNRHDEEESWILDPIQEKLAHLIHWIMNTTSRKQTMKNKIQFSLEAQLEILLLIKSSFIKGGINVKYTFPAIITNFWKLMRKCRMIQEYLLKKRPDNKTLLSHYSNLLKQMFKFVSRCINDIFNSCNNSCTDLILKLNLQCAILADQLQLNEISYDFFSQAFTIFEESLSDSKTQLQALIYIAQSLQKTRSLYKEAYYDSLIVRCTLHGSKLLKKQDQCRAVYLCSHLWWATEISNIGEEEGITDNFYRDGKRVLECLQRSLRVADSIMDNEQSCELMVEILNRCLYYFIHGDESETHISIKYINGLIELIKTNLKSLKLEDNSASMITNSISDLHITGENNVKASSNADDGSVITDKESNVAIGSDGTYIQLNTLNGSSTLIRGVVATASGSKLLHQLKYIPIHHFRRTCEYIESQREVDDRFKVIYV
Assay: co-IP

B1: Δ63-125Chs3-GFP (natural protein)
chain: MTGLNGDDPDDYYLNLNQDEESLLRSRHSVGSGAPHRQGSLVRPERSRLNNPDNPHFYYAQKDEGVAEDEFDKDGDVDNFEESSTQPINKSIKPLRKETNDTLSFWQMYCYFITFWAPAPILAFCGMPKKERQMAWREKVALISVILYIGAIVAFLTFGFTKTVCSSSKLRLKNNEVSTEFVVINGKAYELDTSSRSGIQDVEVDSDTLYGPWSDAGKDASFLFQNVNGNCHNLITPKSNSSIPHDDDNNLAWYFPCKLKNQDGSSKPNFTVENYAGWNCHTSKEDRDAFYGLKSKADVYFTWDGIKNSSRNLIVYNGDVLDLDLLDWLEKDDVDYPVVFDDLKTSNLQGYDLSLVLSNGHERKIARCLSEIIKVGEVDSKTVGCIASDVVLYVSLVFILSVVIIKFIIACYFRWTVARKQGAYIVDNKTMDKHTNDIEDWSNNIQTKAPLKEVDPHLRPKKYSKKSLGHKRASTFDLLKKHSSKMFQFNESVIDLDTSMSSSLQSSGSYRGMTTMTTQNAWKLSNENKAVHSRNPSTLLPTSSMFWNKATSSPVPGSSLIQSLDSTIIHPDIVQQPPLDFMPYGFPLIHTICFVTCYSEDEEGLRTTLDSLSTTDYPNSHKLLMVVCDGLIKGSGNDKTTPEIALGMMDDFVTPPDEVKPYSYVAVASGSKRHNMAKIYAGFYKYDDSTIPPENQQRVPIITIVKCGTPAEQGAAKPGNRGKRDSQIILMSFLEKITFDERMTQLEFQLLKNIWQITGLMADFYETVLMVDADTKVFPDALTHMVAEMVKDPLIMGLCGETKIANKAQSWVTAIQVFEYYISHHQAKAFESVFGSVTCLPGCFSMYRIKSPKGSDGYWVPVLANPDIVERYSDNVTNTLHKKNLLLLGEDRFLSSLMLKTFPKRKQVFVPKAACKTIAPDKFKVLLSQRRRWINSTVHNLFELVLIRDLCGTFCFSMQFVIGIELIGTMVLPLAICFTIYVIIFAIVSKPTPVITLVLLAIILGLPGLIVVITATRWSYLWWMCVYICALPIWNFVLPSYAYWKFDDFSWGDTRTIAGGNKKAQDENEGEFDHSKIKMRTWREFEREDILNRKEESDSFVA
level of coIP relative to wild-type Chs3: ~0.25 of the level with wild-type Chs3
